Oligonucleotides are written 5' to 3', each unit as a sugar letter and its base; * is a phosphorothioate linkage, no mark a phosphodiester; rarer units and linkages stand in square brackets, end groups in braces. Plain capitals give the bases only. m = 2'-O-methyl; r = 2'-OH (RNA)
Tests used:
B2M, CD3, MHC II = assay: Flow cytometry of antigen negative T cells (B2M, CD3, MHC II) after BC22n or Cas9 editing, Example 16A; assay type: cell-based, human
Excerpt: Cells were subsequently washed, processed on a Cytoflex instrument (Beckman Coulter) and analyzed using the FlowJo software package. T cells were gated based on size, shape, viability, and antigen expression.

[1] = system: B2M, TRAC, TRBC1/2, CIITA; assay: NGS editing profile of T cells with BC22n or Cas9 mRNA, single or four guides, LNP titration, Example 16A; assay type: cell-based, human; conditions: LNP;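 also: activated T cells exposed to LNPs 72 h after activation, kept at 37 °C, harvested on day 10 post activation, editing measured by NGS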
Description: Cells were expanded in T cell basal media for 72 hours prior to LNP transfection.
LNPs were mixed to fixed total mRNA weight ratios of 6:3:2 for editor mRNA, guide RNA, and UGI mRNA respectively as described in Table 12. […] LNP mixtures were incubated for 5 minutes at 37° C. in T cell basal media substituting 6% cynomolgus monkey serum (Bioreclamation IVT, Cat. CYN220760) for fetal bovine serum.
T cells were incubated at 37° C. with 5% CO2 for the duration of the experiment.
In total, T cells were exposed to 6 different LNPs simultaneously (editor mRNA, UGI mRNA, 4 guides).

[2] = multiple guide delivery (four guides simultaneously), locus of the guide assayed, editor BC22n, total RNA 8.6 ng
[3] = multiple guide delivery (four guides simultaneously), locus of the guide assayed, editor BC22n, total RNA 17.2 ng
[4] = multiple guide delivery (four guides simultaneously), locus of the guide assayed, editor BC22n, total RNA 34.4 ng
[5] = multiple guide delivery (four guides simultaneously), locus of the guide assayed, editor BC22n, total RNA 68.8 ng
[6] = multiple guide delivery (four guides simultaneously), locus of the guide assayed, editor BC22n, total RNA 137.5 ng
[7] = multiple guide delivery (four guides simultaneously), locus of the guide assayed, editor BC22n, total RNA 275.0 ng
[8] = multiple guide delivery (four guides simultaneously), locus of the guide assayed, editor BC22n, total RNA 550.0 ng
[9] = multiple guide delivery (four guides simultaneously), locus of the guide assayed, editor Cas9, total RNA 8.6 ng
[10] = multiple guide delivery (four guides simultaneously), locus of the guide assayed, editor Cas9, total RNA 17.2 ng
[11] = multiple guide delivery (four guides simultaneously), locus of the guide assayed, editor Cas9, total RNA 34.4 ng
[12] = multiple guide delivery (four guides simultaneously), locus of the guide assayed, editor Cas9, total RNA 68.8 ng
[13] = multiple guide delivery (four guides simultaneously), locus of the guide assayed, editor Cas9, total RNA 137.5 ng
[14] = multiple guide delivery (four guides simultaneously), locus of the guide assayed, editor Cas9, total RNA 275.0 ng
[15] = multiple guide delivery (four guides simultaneously), locus of the guide assayed, editor Cas9, total RNA 550.0 ng
[16] = single guide delivery, editor BC22n, total RNA 8.6 ng
[17] = single guide delivery, editor BC22n, total RNA 17.2 ng
[18] = single guide delivery, editor BC22n, total RNA 34.4 ng
[19] = single guide delivery, editor BC22n, total RNA 68.8 ng
[20] = single guide delivery, editor BC22n, total RNA 137.5 ng
[21] = single guide delivery, editor BC22n, total RNA 275.0 ng
[22] = single guide delivery, editor BC22n, total RNA 550.0 ng
[23] = single guide delivery, editor Cas9, total RNA 8.6 ng
[24] = single guide delivery, editor Cas9, total RNA 17.2 ng
[25] = single guide delivery, editor Cas9, total RNA 34.4 ng
[26] = single guide delivery, editor Cas9, total RNA 68.8 ng
[27] = single guide delivery, editor Cas9, total RNA 137.5 ng
[28] = single guide delivery, editor Cas9, total RNA 275.0 ng
[29] = single guide delivery, editor Cas9, total RNA 550.0 ng

B1: G018117: guide targeting CIITA (SEQ ID NO: 714) (nucleic acid)
guide: mG*mC*mG*rUrCrCrArCrArUrCrCrUrGrCrArArGrGrGrGrUrUrUrUrArGrAmGmCmUmAmGmAmAmAmUmAmGmCrArArGrUrUrArArArArUrArArGrGrCrUrArGrUrCrCrGrUrUrArUrCrAmAmCmUmUmGmAmAmAmAmAmGmUmGmGmCmAmCmCmGmAmGmUmCmGmGmUmGmCmU*mU*mU*mU
B2M, CD3, MHC II; editor BC22n, total RNA 8.6 ng
  percent cells negative for antigen, HLA DR DP DQ neg, Mean %: 41.6%
B2M, CD3, MHC II; editor BC22n, total RNA 17.2 ng
  percent cells negative for antigen, HLA DR DP DQ neg, Mean %: 49.9%
B2M, CD3, MHC II; editor BC22n, total RNA 34.4 ng
  percent cells negative for antigen, HLA DR DP DQ neg, Mean %: 65.8%
B2M, CD3, MHC II; editor BC22n, total RNA 68.8 ng
  percent cells negative for antigen, HLA DR DP DQ neg, Mean %: 74.5%
B2M, CD3, MHC II; editor BC22n, total RNA 137.5 ng
  percent cells negative for antigen, HLA DR DP DQ neg, Mean %: 85.2%
B2M, CD3, MHC II; editor BC22n, total RNA 275.0 ng
  percent cells negative for antigen, HLA DR DP DQ neg, Mean %: 92.5%
B2M, CD3, MHC II; editor BC22n, total RNA 550.0 ng
  percent cells negative for antigen, HLA DR DP DQ neg, Mean %: 95.7%
B2M, CD3, MHC II; editor Cas9, total RNA 8.6 ng
  percent cells negative for antigen, HLA DR DP DQ neg, Mean %: 34.2%
B2M, CD3, MHC II; editor Cas9, total RNA 17.2 ng
  percent cells negative for antigen, HLA DR DP DQ neg, Mean %: 36.2%
B2M, CD3, MHC II; editor Cas9, total RNA 34.4 ng
  percent cells negative for antigen, HLA DR DP DQ neg, Mean %: 40.7%
B2M, CD3, MHC II; editor Cas9, total RNA 68.8 ng
  percent cells negative for antigen, HLA DR DP DQ neg, Mean %: 48.9%
B2M, CD3, MHC II; editor Cas9, total RNA 137.5 ng
  percent cells negative for antigen, HLA DR DP DQ neg, Mean %: 55.5%
B2M, CD3, MHC II; editor Cas9, total RNA 275.0 ng
  percent cells negative for antigen, HLA DR DP DQ neg, Mean %: 65.6%
B2M, CD3, MHC II; editor Cas9, total RNA 550.0 ng
  percent cells negative for antigen, HLA DR DP DQ neg, Mean %: 72.0%
[1]; [2]
  C-to-A/G % mean: 3.1%
  C-to-T % mean: 4.6%
  Indel % mean: 0.8%
[1]; [3]
  C-to-A/G % mean: 2.9%
  C-to-T % mean: 10.5%
  Indel % mean: 1.1%
[1]; [4]
  C-to-A/G % mean: 2.9%
  C-to-T % mean: 18.8%
  Indel % mean: 1.6%
[1]; [5]
  C-to-A/G % mean: 2.7%
  C-to-T % mean: 35.1%
  Indel % mean: 1.6%
[1]; [6]
  C-to-A/G % mean: 2.9%
  C-to-T % mean: 52.9%
  Indel % mean: 1.5%
[1]; [7]
  C-to-A/G % mean: 2.5%
  C-to-T % mean: 71.9%
  Indel % mean: 1.3%
[1]; [8]
  C-to-A/G % mean: 2.6%
  C-to-T % mean: 81.1%
  Indel % mean: 1.1%
[1]; [9]
  C-to-A/G % mean: 2.6%
  C-to-T % mean: 0.2%
  Indel % mean: 1.4%
[1]; [10]
  C-to-A/G % mean: 2.5%
  C-to-T % mean: 0.2%
  Indel % mean: 2.1%
[1]; [11]
  C-to-A/G % mean: 2.5%
  C-to-T % mean: 0.3%
  Indel % mean: 3.9%
[1]; [12]
  C-to-A/G % mean: 2.5%
  C-to-T % mean: 0.2%
  Indel % mean: 7.7%
[1]; [13]
  C-to-A/G % mean: 2.2%
  C-to-T % mean: 0.2%
  Indel % mean: 13.3%
[1]; [14]
  C-to-A/G % mean: 1.9%
  C-to-T % mean: 0.1%
  Indel % mean: 26.7%
[1]; [15]
  C-to-A/G % mean: 1.7%
  C-to-T % mean: 0.1%
  Indel % mean: 42.3%
[1]; [16]
  C-to-A/G % mean: 3.8%
  C-to-T % mean: 14.5%
  Indel % mean: 3.5%
[1]; [17]
  C-to-A/G % mean: 3.5%
  C-to-T % mean: 28.1%
  Indel % mean: 3.9%
[1]; [18]
  C-to-A/G % mean: 3.3%
  C-to-T % mean: 45.9%
  Indel % mean: 3.6%
[1]; [19]
  C-to-A/G % mean: 3.6%
  C-to-T % mean: 62.8%
  Indel % mean: 3.7%
[1]; [20]
  C-to-A/G % mean: 2.7%
  C-to-T % mean: 78.9%
  Indel % mean: 2.7%
[1]; [21]
  C-to-A/G % mean: 2.6%
  C-to-T % mean: 86.3%
  Indel % mean: 2.0%
[1]; [22]
  C-to-A/G % mean: 2.6%
  C-to-T % mean: 92.3%
  Indel % mean: 1.1%
[1]; [23]
  C-to-A/G % mean: 2.5%
  C-to-T % mean: 0.3%
  Indel % mean: 6.0%
[1]; [24]
  C-to-A/G % mean: 2.4%
  C-to-T % mean: 0.2%
  Indel % mean: 11.2%
[1]; [25]
  C-to-A/G % mean: 2.1%
  C-to-T % mean: 0.2%
  Indel % mean: 20.8%
[1]; [26]
  C-to-A/G % mean: 1.9%
  C-to-T % mean: 0.2%
  Indel % mean: 33.2%
[1]; [27]
  C-to-A/G % mean: 1.3%
  C-to-T % mean: 0.1%
  Indel % mean: 51.2%
[1]; [28]
  C-to-A/G % mean: 0.9%
  C-to-T % mean: 0.1%
  Indel % mean: 64.5%
[1]; [29]
  C-to-A/G % mean: 0.6%
  C-to-T % mean: 0.1%
  Indel % mean: 78.4%

— patent US20230183753A1, “Methods of in Vitro Cell Delivery” (Intellia Therapeutics, Inc., priority 2020, published 2023)
